From US20210255205A1, “COMPOSITIONS AND METHODS FOR TREATING METABOLIC DISEASE” (THE REGENTS OF THE UNIVERSITY OF CALIFORNIA, priority 2018, published 2021)

B1: Aster-C: purified recombinant ASTER domain of mouse Aster-C (protein, UniProt Q8CI52 206-528, looked up, fragment)
chain: MEHLLSVEENVQPRSPGRSSVDDAGERDEKFSKAVSFTQESVSRASETEPLDGNSPKRGLGKEDSQSERNVRKSPSLASEKRISRAPSKSLDLNKNEYLSLDKSSTSDSVDEENIPEKDLQGRLYINRVFHISAERMFELLFTSSHFMQRFANSRNIIDVVSTPWTVESGGNQLRTMTYTIVLSNPLTGKYTAATEKQTLYKESREAQFYLVDSEVLTHDVPYHDYFYTLNRYCIVRSAKQRCRLRVSTDLKYRKQPWGLIKSLIEKNSWSSLESYFKKLESDLLMEESVLSQSIEDAGKHSSLRRRRRTLNRTAEPVPKLSS
modifications: ASTER domain
B2: Aster-B: purified recombinant ASTER domain of mouse Aster-B (protein, UniProt Q80TI0 224-560, looked up, fragment)
chain: NELGLTSDDEDYVPPDDDFNTMGYCEEIPIEENEVNDSSSKSSIETKPDASPQLPKKSITNSTLTSTGSSEAPVSFDGLPLEEEVMEGDGSLEKELAIDNIIGEKIEIMAPVTSPSLDFNDNEDIPTELSDSSDTHDEGEVQAFYEDLSGRQYVNEVFNFSVDKLYDLLFTNSPFLRDFMEQRRFSDIIFHPWKKEENGNQSRVILYTITLTNPLAPKTATVRETQTMYKASQESECYVIDAEVLTHDVPYHDYFYTINRYTLTRVARNKSRLRVSTELRYRKQPWGFVKTFIEKNFWSGLEDYFRHLETELTKTESTYLAEIHRQSPKEKASKSSA
modifications: ASTER domain
B3: Aster-A: purified recombinant ASTER domain of mouse Aster-A (protein, UniProt Q8VEF1 261-576, looked up, fragment)
chain: AADHSQEPSPVGSRRGRVTPNLSRASSDADHGAEEDKEEQTDGLDASSSQTVTPVAEPLSSEPTPPDGPTSSLGPLDLLSREELLTDTSNSSSSTGEEGDLAALLPDLSGRLLINSVFHMGAERLQQMLFSDSPFLQGFLQQRKFTDVTLSPWSSDSKCHQRRVLTYTIPISNQLGPKSASVVETQTLFRRGPQAGGCVVDSEVLTQGIPYQDYFYTAHRYCILGLARNKARLRVSSEIRYRKQPWSLVKSLIEKNSWSGIEDYFHHLDRELAKAEKLSLEEGGKDTRGLLSGLRRRKRPLSWRGHRDGPQHPDPD
modifications: ASTER domain

Assay: in vitro cholesterol transfer between heavy and light liposomes
Format: biochemical
Details: purified recombinant ASTER domain, 15 min under agitation
Procedure: Values are means±SEM. […] Input (Ctrl) served as a control for LXR enrichment. […] Values are means±SEM. […] Results values are means±SD. […] Results values are means±SD. […] Values are means±SEM.
Liposomes were generated by drying lipids in glass tube under liquid nitrogen. Lipid films were then resuspended in 50 mM hepes, 120 mM potassium acetate buffer ±0.75M sucrose where indicated. Lipid suspensions were then vortexed and incubated for 30 minutes at 37° C. (2 mM total lipid concentration). Suspensions were then snap frozen in liquid nitrogen and thawed rapidly at 37° C. five times. Light liposomes were prepared by extruding through 100 nm polycarbonate filters. Heavy liposomes containing sucrose were prepared by extruding through a 400 nm polycarbonate filter, then washing several times in 50 mM hepes, 120 mM potassium acetate buffer with no sucrose. Liposome sizes were confirmed using an N4 Dynamic Light Scattering instrument.
To test the ability of the ASTER domain to transfer cholesterol between membranes, an in vitro assay was optimized with heavy and light liposomes. Purified recombinant ASTER domain was incubated with “heavy” PC/dansyl-PE liposomes and “light” PC/cholesterol/dansyl-PE liposomes under agitation for 15 min. The liposomes were separated by centrifugation, and cholesterol levels were determined. Dansyl-PE intensities of heavy liposomes were used to normalize the cholesterol values.

Which “cholesterol transfer to the heavy liposomes” value (from here on “cholesterol transfer”) does the source give for B1 here?
The value was “efficiently facilitated cholesterol transfer”.

With B2 as the molecule, how does the “cholesterol transfer” value read?
The value was “efficiently facilitated cholesterol transfer”.

For B3, which “cholesterol transfer” value is on record?
Its value is “efficiently facilitated cholesterol transfer”.
